We go through one molecule from patent publication EP1379283B1 (Palatin Technologies, Inc., dated 2002).

Square brackets hold non-standard residues; d marks the D form. Nle = CCCC[C@H](N)C(=O)O

The target of test [1] is T1, hMC4-R (human, UniProt P32245 1-332).
T1 construct: whole, on cells; Membrane preparation; also called MCR-4
Description: assay not described for this value.

Test [2] concerns the target T2, MC1-R of B-16 mouse melanoma cells (mouse, UniProt Q01727 1-315).
T2 construct: whole, on cells; Membrane preparation; also called MCR-1
Kind of test: assay not described for this value.

T2 sequence (Q01727 whole entry): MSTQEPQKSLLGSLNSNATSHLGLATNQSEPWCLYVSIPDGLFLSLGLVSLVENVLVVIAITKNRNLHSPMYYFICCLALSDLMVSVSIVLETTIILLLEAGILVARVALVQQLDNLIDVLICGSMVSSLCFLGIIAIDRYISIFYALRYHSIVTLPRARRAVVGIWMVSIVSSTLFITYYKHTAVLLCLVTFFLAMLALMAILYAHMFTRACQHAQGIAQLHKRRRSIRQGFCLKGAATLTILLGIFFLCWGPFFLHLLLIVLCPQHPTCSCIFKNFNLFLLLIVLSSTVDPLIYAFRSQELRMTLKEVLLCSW
T1 sequence (P32245 whole entry): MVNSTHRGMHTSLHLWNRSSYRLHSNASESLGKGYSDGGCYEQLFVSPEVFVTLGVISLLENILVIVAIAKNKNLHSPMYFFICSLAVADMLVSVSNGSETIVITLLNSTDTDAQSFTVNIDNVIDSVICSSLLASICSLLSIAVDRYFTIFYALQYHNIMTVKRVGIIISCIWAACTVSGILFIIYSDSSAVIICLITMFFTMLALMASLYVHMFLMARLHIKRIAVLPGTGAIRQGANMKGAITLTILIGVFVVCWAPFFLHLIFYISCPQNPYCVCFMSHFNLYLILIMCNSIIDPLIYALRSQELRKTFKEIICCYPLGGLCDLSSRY

B1: Ac-Nle-Ala-His-D-Phe-Arg-Trp-NH2 (peptide)
peptide: Ac-[Nle]AH[dF]RW-NH2
notes: Linear parent peptide, not complexed to a metal; also called parent melanocortin peptide
For the molecule B1, the inhibition constant Ki in test [1] was found to be 2 µM; in test [2] it was 0.1 µM.
